Consider three molecules from patent US20200239541A1 (XYPHOS BIOSCIENCES, published 2020).

Assay [1] concerns the target T1, biotinylated human NKG2D (Example 1) (human, UniProt P26718 78-216).
T1 construct: also called recombinant biotinylated NKG2D
T1 sequence (looked up): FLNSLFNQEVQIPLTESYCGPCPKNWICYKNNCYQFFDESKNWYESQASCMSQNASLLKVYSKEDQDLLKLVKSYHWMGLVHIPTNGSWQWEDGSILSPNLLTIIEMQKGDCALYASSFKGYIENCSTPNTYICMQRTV
The assay is described as follows: BLI (Octet). In general terms: BLI is a label-free optical method that tracks binding on a fibre tip over time.

Assay [2] addresses T2, NKG2D on the human NK cell line NKL (human, UniProt P26718 1-216).
T2 sequence (looked up): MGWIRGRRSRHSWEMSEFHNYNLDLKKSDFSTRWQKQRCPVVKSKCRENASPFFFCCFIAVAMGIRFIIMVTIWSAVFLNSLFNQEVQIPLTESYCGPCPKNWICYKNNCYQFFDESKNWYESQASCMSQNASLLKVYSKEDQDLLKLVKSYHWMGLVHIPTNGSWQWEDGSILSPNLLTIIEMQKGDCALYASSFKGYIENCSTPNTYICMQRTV
Kind of assay: cell-based or functional assay.

The target of assay [3] is T3, human NKG2D-Fc (human, UniProt P26718 78-216).
T3 construct: also called natural NKG2D-Fc; not shown: Fc
T3 sequence (looked up): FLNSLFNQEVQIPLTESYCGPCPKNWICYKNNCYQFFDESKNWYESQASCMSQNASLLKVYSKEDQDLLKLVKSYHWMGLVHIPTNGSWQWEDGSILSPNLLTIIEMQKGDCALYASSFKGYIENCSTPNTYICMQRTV
The assay is described as follows: competition ELISA vs coated WT sMICA, 2 nM human NKG2D-Fc. From the text: (§1) To the NKG2DLs in the above example, we directly attached heterologous molecules such as a polypeptide to each of these 4 modified α1-α2 NKG2DLs using a linker peptide. Four His-tagged proteins (SEQ ID NOs.: 25-28) consisting of modified NKG2DLs with attached heterologous molecules were expressed in insect cells and purified to characterize their NKG2D binding affinities and kinetic binding parameters. Using a competitive binding ELISA, we determined the relative NKG2D binding affinities of the 4 modified α1-α2 variants.
In general terms: In an ELISA, binding on a coated surface is turned into a signal by an enzyme label.

The target in assay [4] is T3, human NKG2D-Fc. The assay is described as follows: competition ELISA vs coated WT sMICA.
Source text: as §1

Assay [5] addresses T1, biotinylated human NKG2D (Example 1). The assay is described as follows: BLI (Octet), biotinylated human NKG2D coated, 100 nM analyte.
For assay [6] the target is unchanged. Kind of assay: BLI (Octet), Kd = kOFF/kON.

B1: α1-α2 variant 16 (His-tagged, with attached heterologous polypeptide) (ligand)
chain: EPHSLRYNLTVLSWDGSVQSGFLTEVHLDGQPFLRCDRQKCRAKPQGQWAEDVLGNKTWDRETRDLTGWGKDLRMTLAHIKDQKEGLHSLQEIRVCEIHEDNSTRSSQHFYYDGELFLSQNLETLEWTMPQSSRAQTLAMNVRNFLKEDAMETDTHYHAMRADCLQELRRYLKSGVVLRRTVPPMVQVTRSEASGGSGDRVTITCRASQDVSTAVAWYQQKPGKAPKLLIYSASFLYSGVPSRFSGSGSGTDFTLTISSLQPEDFATYYCQQSYTTPPTFGQGTKVEIKGGSSRSSSSGGGGSGGGGEVQLVESGGGLVQPGGSLRLSCAASGFTFTSTGISWVRQAPGKGLEWVGRIYPTNGSTNYADSVKGRFTISADTSKNTAYLQMNSLRAEDTAVYYCARTYGIYDLYVDYTEYVMDYWGQGTLVTVSSGGSSRSSSSGGGGSGGGGDIQMTQSPSSLSASGGSGQITVTCRASGFYPWNITLSWRQDGVSLSHDTQQWGDVLPDGQGTYQTWVATRISQGEEQRFTCYMEHSGQHSTHPVPSGKGSHHHHHH
As for B1, in assay [1], the “fold affinity increase relative to WT α1-α2” value was ~30 fold and the “fold reduction in off-rate relative to WT” value is 18 fold. Further, the “NKL cell-mediated lysis of FGFR3-expressing P815 cells (calcein release)” value (“NKL cell-mediated lysis … (calcein release)” for short) in assay [2] was ~15 fold. Also, the IC50 with human NKG2D-Fc [3] amounted to 700 pM. For the same molecule, the “fold better binding than WT NKG2DL” value with human NKG2D-Fc [4] turned out to be 27 fold. In assay [5], this molecule registered a koff of 9e-05 s⁻¹ and a kon of 200000 M⁻¹ s⁻¹. In assay [6], the Kd was 500 pM.

B2: α1-α2 variant 18 (His-tagged, with attached heterologous polypeptide) (ligand)
chain: EPHSLRYNLTVLSWDGSVQPGFLTEVHLDGQPFLRCDRQKCRAKPQGQWAEDVLGNKTWDRETRDLTLWGKDLRMTLAHIKDQKEGLHSLQEIRVCEIHEDNSTRSSQHFYYDGELFLSQNLETLEWTMPQSSRAQTLAMNVRNFLKEDAMETDTHYHAMRADCLQELRRYLKSGVVLRRTVPPMVQVTRSEASGGSGDRVTITCRASQDVSTAVAWYQQKPGKAPKLLIYSASFLYSGVPSRFSGSGSGTDFTLTISSLQPEDFATYYCQQSYTTPPTFGQGTKVEIKGGSSRSSSSGGGGSGGGGEVQLVESGGGLVQPGGSLRLSCAASGFTFTSTGISWVRQAPGKGLEWVGRIYPTNGSTNYADSVKGRFTISADTSKNTAYLQMNSLRAEDTAVYYCARTYGIYDLYVDYTEYVMDYWGQGTLVTVSSGGSSRSSSSGGGGSGGGGDIQMTQSPSSLSASGGSGQITVTCRASGFYPWNITLSWRQDGVSLSHDTQQWGDVLPDGQGTYQTWVATRISQGEEQRFTCYMEHSGQHSTHPVPSGKGSHHHHHH
As for B2, in assay [1], the “fold affinity increase relative to WT α1-α2” value is ~30 fold and the “fold reduction in off-rate relative to WT” value was 18 fold. Moreover, the “NKL cell-mediated lysis … (calcein release)” value in assay [2] was ~15 fold. The IC50 with human NKG2D-Fc [3] stood at 500 pM. The “fold better binding than WT NKG2DL” value in the assay with human NKG2D-Fc [4] stood at 38 fold. Moreover, in assay [5], the koff stood at 9e-05 s⁻¹ and the on-rate (kon) worked out at 230000 M⁻¹ s⁻¹. Besides, in assay [6], the affinity, expressed as Kd, was 400 pM.

B3: α1-α2 variant 17 (His-tagged, with attached heterologous polypeptide) (ligand)
chain: EPHSLRYNLTVLSWDGSVQSGFLTEVHLDGQPFLRCDRQKCRAKPQGQWAEDVLGNKTWDRETRDLTLWGKDLRMTLAHIKDQKEGLHSLQEIRVCEIHEDNSTRSSQHFYYDGELFLSQNLETLEWTMPQSSRAQTLAMNVRNFLKEDAMETDTHYHAMRADCLQELRRYLKSGVVLRRTVPPMVQVTRSEASGGSGDRVTITCRASQDVSTAVAWYQQKPGKAPKLLIYSASFLYSGVPSRFSGSGSGTDFTLTISSLQPEDFATYYCQQSYTTPPTFGQGTKVEIKGGSSRSSSSGGGGSGGGGEVQLVESGGGLVQPGGSLRLSCAASGFTFTSTGISWVRQAPGKGLEWVGRIYPTNGSTNYADSVKGRFTISADTSKNTAYLQMNSLRAEDTAVYYCARTYGIYDLYVDYTEYVMDYWGQGTLVTVSSGGSSRSSSSGGGGSGGGGDIQMTQSPSSLSASGGSGQITVTCRASGFYPWNITLSWRQDGVSLSHDTQQWGDVLPDGQGTYQTWVATRISQGEEQRFTCYMEHSGQHSTHPVPSGKGSHHHHHH
As for B3, in assay [1], the “fold affinity increase relative to WT α1-α2” value was ~30 fold and the “fold reduction in off-rate relative to WT” value worked out at 18 fold. Also, the “NKL cell-mediated lysis … (calcein release)” value in assay [2] is ~15 fold. The same molecule yielded an IC50 with human NKG2D-Fc [3] of 600 pM. Besides, the “fold better binding than WT NKG2DL” value in the assay with human NKG2D-Fc [4] is 32 fold. In assay [5], this molecule came in with a koff of 7e-05 s⁻¹ and a kon of 200000 M⁻¹ s⁻¹. Also, in assay [6], the Kd worked out at 400 pM.

As usually defined, the IC50 is the concentration needed to halve the response being measured. As a reminder, the koff is the first-order rate constant of dissociation. Read a low koff as a long-lived complex. As a reminder, the kon is the rate constant with which the complex forms. Lower therefore signals slower complex formation. Broadly, the Kd is the equilibrium constant for the complex coming apart. High values mean weaker binding, low ones tighter binding.
